Experimental data as given in the supplement of paper PMC9112550, “Optimization of the antimicrobial peptide Bac7 by deep mutational scanning” (BMC Biology, 2022).

System: Escherichia coli TOP10
Test: shrunken log2 fold change of peptide-encoding DNA abundance (4.5 h post-induction vs induction); higher = less antimicrobial activity (less host growth inhibition)
Conditions: time post-induction: 4.5 h; library: site-saturation at positions 5, 18, 19, 20
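Note: peptides expressed intracellularly from a pBAD plasmid library in pooled LB shake-flask culture, induced with 0.3% L-arabinose, DNA abundance read by NGS, three biological replicates, DESeq2 with apeglm shrinkage.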

Sequence | shrunken log2 fold change
RRIRSRPPRLPRPRPRPKDWPRP | 0.21
RRIRDRPPRLPRPRPRPGKAPRP | 0.00543
RRIRFRPPRLPRPRPRPKQAPRP | -0.0316
RRIRFRPPRLPRPRPRPEQNPRP | 0.264
RRIRYRPPRLPRPRPRPFAFPRP | -1.05
RRIRDRPPRLPRPRPRPLEYPRP | 0.061
RRIRERPPRLPRPRPRPLHYPRP | -0.249
RRIRIRPPRLPRPRPRPMAIPRP | -0.274
RRIRNRPPRLPRPRPRPHCPPRP | -1.27
RRIRWRPPRLPRPRPRPCSMPRP | -0.565
RRIRWRPPRLPRPRPRPLLHPRP | 0.493
RRIRGRPPRLPRPRPRPGDHPRP | 0.333
RRIRVRPPRLPRPRPRPTGMPRP | 0.0943
RRIRGRPPRLPRPRPRPKPHPRP | 0.854
RRIRMRPPRLPRPRPRPEGAPRP | 3.32
RRIRFRPPRLPRPRPRPYTTPRP | -0.333
RRIRCRPPRLPRPRPRPNAAPRP | 0.975
RRIRTRPPRLPRPRPRPCIGPRP | -0.0176
RRIRNRPPRLPRPRPRPAGFPRP | 0.0141
RRIRLRPPRLPRPRPRPKLGPRP | -0.123
RRIRDRPPRLPRPRPRPWSMPRP | -0.0018
RRIRCRPPRLPRPRPRPSPMPRP | 0.0865
RRIRWRPPRLPRPRPRPEETPRP | 0.0603

Sequence | shrunken log2 fold change
RRIRCRPPRLPRPRPRPVYAPRP | -0.515
RRIRDRPPRLPRPRPRPKVCPRP | -0.0149
RRIRNRPPRLPRPRPRPIVMPRP | -0.0105
RRIRARPPRLPRPRPRPNCDPRP | 0.476
RRIRARPPRLPRPRPRPRSHPRP | 0.223
RRIRARPPRLPRPRPRPYLFPRP | -0.494
RRIRDRPPRLPRPRPRPNQWPRP | 0.151
RRIRWRPPRLPRPRPRPMDDPRP | -0.172
RRIRDRPPRLPRPRPRPKYLPRP | -0.131
RRIRDRPPRLPRPRPRPHYCPRP | -0.0438
RRIRWRPPRLPRPRPRPIDAPRP | 0.0128
RRIRERPPRLPRPRPRPGWFPRP | -0.249
RRIRARPPRLPRPRPRPPFWPRP | 0.914
RRIRTRPPRLPRPRPRPLANPRP | -0.105
RRIRMRPPRLPRPRPRPVLDPRP | 0.331
RRIRHRPPRLPRPRPRPILTPRP | -0.201
RRIRCRPPRLPRPRPRPLRQPRP | 0.713
RRIRFRPPRLPRPRPRPGDFPRP | -0.209
RRIRMRPPRLPRPRPRPNHDPRP | -0.261
RRIRMRPPRLPRPRPRPVVTPRP | 0.0538
RRIRNRPPRLPRPRPRPVGGPRP | 0.279
RRIRFRPPRLPRPRPRPNQYPRP | -1.01
RRIRMRPPRLPRPRPRPKMFPRP | 0.0019

Sequence | shrunken log2 fold change
RRIRERPPRLPRPRPRPHVTPRP | -0.228
RRIRLRPPRLPRPRPRPTGHPRP | 0.0863
RRIRIRPPRLPRPRPRPLHGPRP | -0.308
RRIRVRPPRLPRPRPRPKPLPRP | 0.196
RRIRYRPPRLPRPRPRPANHPRP | -0.463
RRIRIRPPRLPRPRPRPLFMPRP | -0.756
RRIRKRPPRLPRPRPRPAKMPRP | 0.376
RRIRARPPRLPRPRPRPPRNPRP | 0.965
RRIRLRPPRLPRPRPRPNKKPRP | -0.256
RRIRERPPRLPRPRPRPICGPRP | 0.0966
RRIRERPPRLPRPRPRPSFGPRP | 0.189
RRIRCRPPRLPRPRPRPHWYPRP | -0.714
RRIRWRPPRLPRPRPRPVLQPRP | 0.177
RRIRTRPPRLPRPRPRPKPNPRP | 0.186
RRIRERPPRLPRPRPRPGHCPRP | 0.0591
RRIRGRPPRLPRPRPRPYKTPRP | -0.0831
RRIRGRPPRLPRPRPRPIRAPRP | 0.602
RRIRFRPPRLPRPRPRPFELPRP | -0.0457
RRIRIRPPRLPRPRPRPGHQPRP | -0.00431
RRIRARPPRLPRPRPRPWKLPRP | -0.36
RRIRKRPPRLPRPRPRPRRFPRP | 0.39
RRIRFRPPRLPRPRPRPAGFPRP | 0.0553
RRIRTRPPRLPRPRPRPKRWPRP | 0.723

Sequence | shrunken log2 fold change
RRIRCRPPRLPRPRPRPSDCPRP | -0.387
RRIRRRPPRLPRPRPRPLEQPRP | 0.166
RRIRWRPPRLPRPRPRPTFGPRP | -0.0806
RRIRWRPPRLPRPRPRPKTEPRP | 0.111
RRIRIRPPRLPRPRPRPQRWPRP | 0.304
RRIRNRPPRLPRPRPRPMCDPRP | -0.386
RRIRKRPPRLPRPRPRPMYWPRP | -0.111
RRIRPRPPRLPRPRPRPPFYPRP | 0.0888
RRIRMRPPRLPRPRPRPTLQPRP | 0.13
RRIRSRPPRLPRPRPRPHNAPRP | -0.197
RRIRSRPPRLPRPRPRPKQHPRP | 0.235
RRIRQRPPRLPRPRPRPDQKPRP | 0.019
RRIRLRPPRLPRPRPRPRGYPRP | 0.262
RRIRLRPPRLPRPRPRPPKNPRP | 0.43
RRIRERPPRLPRPRPRPYNSPRP | -0.0287
RRIRNRPPRLPRPRPRPHWCPRP | 0.0251
RRIRERPPRLPRPRPRPKNEPRP | -0.315
RRIRYRPPRLPRPRPRPFATPRP | -0.49
RRIRPRPPRLPRPRPRPFADPRP | 0.174
RRIRARPPRLPRPRPRPIREPRP | -0.018
RRIRPRPPRLPRPRPRPIQCPRP | 0.0062
RRIRMRPPRLPRPRPRPAVKPRP | 0.0878
